Laboratory results published in patent publication US20250154278A1 (JANUX THERAPEUTICS, published 2025).

T1: Human TROP2 full length, on tumor cells (HCT116, MDAMB231, NCI-H292) (human, UniProt P09758 31-323)
T1 sequence: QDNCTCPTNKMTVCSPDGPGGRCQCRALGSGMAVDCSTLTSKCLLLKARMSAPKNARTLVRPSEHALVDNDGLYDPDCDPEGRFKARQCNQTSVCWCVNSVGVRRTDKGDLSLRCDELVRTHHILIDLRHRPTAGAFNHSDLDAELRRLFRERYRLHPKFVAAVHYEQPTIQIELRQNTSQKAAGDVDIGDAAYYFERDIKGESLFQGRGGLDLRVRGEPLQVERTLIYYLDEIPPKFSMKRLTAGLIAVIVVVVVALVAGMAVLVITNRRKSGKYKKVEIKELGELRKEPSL


Key:
[1] = molecular target: T1, Human TROP2 full length, on tumor cells …; assay: cell-based or functional assay
[2] = molecular target: T2, human CD3 epsilon, biotinylated (human, UniProt P07766 23-126, limits assumed, biotinylated (site not stated)); assay: BLI, CD3e-biotin on sensor (summary)
T2 construct: Printed in places as CD36, CD38, CD3c or CD3&; also called CD3e-bio; human CD3e-biotin

[3] = molecular target: T2, human CD3 epsilon, biotinylated; assay: BLI, CD3e-biotin on sensor, 50 nM TCE
Experimental: The wild-type (non-mutated) and alanine mutated TCEs were evaluated for their ability to bind CD36 or TROP2 via kinetic binding measurements using biolayer interferometry (BLI). […] The TCEs diluted in buffer were then associated onto the antigen loaded biosensors. Sensors were then transferred to buffer where the TCEs were then dissociated from the sensors. Association and dissociation rates were measured in real time using an Octet® instrument.

T2 sequence (P07766 23-126 limits assumed): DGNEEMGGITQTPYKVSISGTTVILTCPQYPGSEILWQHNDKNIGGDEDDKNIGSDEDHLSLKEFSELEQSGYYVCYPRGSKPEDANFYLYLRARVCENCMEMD

Row | CD3 Octet response [2] | CD3 t1/2 [2] | Response [3] | Kd [2] | Kd [3] | Binder | TCE Cytotoxicity EC50, HCT116 + CD8+ T cells [1] | TCE Cytotoxicity EC50, MDAMB231 + CD8+ T cells [1] | TCE Cytotoxicity EC50, H292 + CD8+ T cells [1]
1 |  |  |  |  |  | TCE-2 (TROP2 Fab x SP34.185 scFv, non-mutated, scFv on the Fab LC) (bispecific antibody) light: not shown heavy: QVQLQQSGSELKKPGASVKVSCKASGYTFTNYGMNWVKQAPGQGLKWMGWINTYTGEPTYTDDFKGRFAFSLDTSVSTAYLQISSLKADDTAVYFCARGGFGSSYWYFDVWGQGSLVTVSSASTKGPSVFPLAPSSKSTSGGTAALGCLVKDYFPEPVTVSWNSGALTSGVHTFPAVLQSSGLYSLSSVVTVPSSSLGTQTYICNVNHKPSNTKVDKKVEPKSC | 0.0016 nM | 0.0012 nM | 
2 |  |  |  |  |  | TCE-3 (TROP2 Fab HC R98A TCE, scFv on the Fab LC) (bispecific antibody) light: not shown heavy: QVQLQQSGSELKKPGASVKVSCKASGYTFTNYGMNWVKQAPGQGLKWMGWINTYTGEPTYTDDFKGRFAFSLDTSVSTAYLQISSLKADDTAVYFCAAGGFGSSYWYFDVWGQGSLVTVSSASTKGPSVFPLAPSSKSTSGGTAALGCLVKDYFPEPVTVSWNSGALTSGVHTFPAVLQSSGLYSLSSVVTVPSSSLGTQTYICNVNHKPSNTKVDKKVEPKSC | 0.022 nM | 0.0077 nM | 0.0004 nM
3 |  |  |  |  |  | TCE-5 (TROP2 Fab HC D109A TCE, scFv on the Fab LC) (bispecific antibody) light: not shown heavy: QVQLQQSGSELKKPGASVKVSCKASGYTFTNYGMNWVKQAPGQGLKWMGWINTYTGEPTYTDDFKGRFAFSLDTSVSTAYLQISSLKADDTAVYFCARGGFGSSYWYFAVWGQGSLVTVSSASTKGPSVFPLAPSSKSTSGGTAALGCLVKDYFPEPVTVSWNSGALTSGVHTFPAVLQSSGLYSLSSVVTVPSSSLGTQTYICNVNHKPSNTKVDKKVEPKSC | 0.0058 nM | 0.0026 nM | 0.0002 nM
4 |  |  |  |  |  | TCE-1 (TROP2 Fab x SP34.185 scFv, non-mutated, scFv on the Fab HC) (bispecific antibody) light: DIQLTQSPSSLSASVGDRVSITCKASQDVSIAVAWYQQKPGKAPKLLIYSASYRYTGVPDRFSGSGSGTDFTLTISSLQPEDFAVYYCQQHYITPLTFGAGTKVEIKRTVAAPSVFIFPPSDEQLKSGTASVVCLLNNFYPREAKVQWKVDNALQSGNSQESVTEQDSKDSTYSLSSTLTLSKADYEKHKVYACEVTHQGLSSPVTKSFNRGEC heavy: not shown | 0.0286 nM | 0.012 nM | 0.0013 nM
5 | 0.74 | 4.26 min | 0.742 |  |  | TCE-33 (anti-CD3 scFv V239A, anti-TROP2 wt) (bispecific antibody) light: DIQLTQSPSSLSASVGDRVSITCKASQDVSIAVAWYQQKPGKAPKLLIYSASYRYTGVPDRFSGSGSGTDFTLTISSLQPEDFAVYYCQQHYITPLTFGAGTKVEIKRTVAAPSVFIFPPSDEQLKSGTASVVCLLNNFYPREAKVQWKVDNALQSGNSQESVTEQDSKDSTYSLSSTLTLSKADYEKHKVYACEVTHQGLSSPVTKSFNRGEC heavy: not shown |  |  | 
6 |  |  |  |  |  | TCE-8 (TROP2 Fab HC D109A TCE, scFv on the Fab HC) (bispecific antibody) light: DIQLTQSPSSLSASVGDRVSITCKASQDVSIAVAWYQQKPGKAPKLLIYSASYRYTGVPDRFSGSGSGTDFTLTISSLQPEDFAVYYCQQHYITPLTFGAGTKVEIKRTVAAPSVFIFPPSDEQLKSGTASVVCLLNNFYPREAKVQWKVDNALQSGNSQESVTEQDSKDSTYSLSSTLTLSKADYEKHKVYACEVTHQGLSSPVTKSFNRGEC heavy: not shown | 0.083 nM | 0.026 nM | 0.004 nM
7 |  |  | -0.0009 |  |  | TCE-22 (anti-CD3 scFv Y111A, anti-TROP2 wt) (bispecific antibody) light: DIQLTQSPSSLSASVGDRVSITCKASQDVSIAVAWYQQKPGKAPKLLIYSASYRYTGVPDRFSGSGSGTDFTLTISSLQPEDFAVYYCQQHYITPLTFGAGTKVEIKRTVAAPSVFIFPPSDEQLKSGTASVVCLLNNFYPREAKVQWKVDNALQSGNSQESVTEQDSKDSTYSLSSTLTLSKADYEKHKVYACEVTHQGLSSPVTKSFNRGEC heavy: not shown |  |  | 
8 |  | 2.96 min |  | 6.26 nM | 6.26 nM | TCE-25 (anti-CD3 scFv V231A, anti-TROP2 wt) (bispecific antibody) light: DIQLTQSPSSLSASVGDRVSITCKASQDVSIAVAWYQQKPGKAPKLLIYSASYRYTGVPDRFSGSGSGTDFTLTISSLQPEDFAVYYCQQHYITPLTFGAGTKVEIKRTVAAPSVFIFPPSDEQLKSGTASVVCLLNNFYPREAKVQWKVDNALQSGNSQESVTEQDSKDSTYSLSSTLTLSKADYEKHKVYACEVTHQGLSSPVTKSFNRGEC heavy: not shown |  |  | 
9 | 0.65 | 2.45 min | 0.65 |  |  | TCE-30 (anti-CD3 scFv N236A, anti-TROP2 wt) (bispecific antibody) light: DIQLTQSPSSLSASVGDRVSITCKASQDVSIAVAWYQQKPGKAPKLLIYSASYRYTGVPDRFSGSGSGTDFTLTISSLQPEDFAVYYCQQHYITPLTFGAGTKVEIKRTVAAPSVFIFPPSDEQLKSGTASVVCLLNNFYPREAKVQWKVDNALQSGNSQESVTEQDSKDSTYSLSSTLTLSKADYEKHKVYACEVTHQGLSSPVTKSFNRGEC heavy: not shown |  |  | 
10 | 0.73 | 2.67 min | 0.728 | 6.51 nM | 6.51 nM | TCE-31 (anti-CD3 scFv R237A, anti-TROP2 wt) (bispecific antibody) light: DIQLTQSPSSLSASVGDRVSITCKASQDVSIAVAWYQQKPGKAPKLLIYSASYRYTGVPDRFSGSGSGTDFTLTISSLQPEDFAVYYCQQHYITPLTFGAGTKVEIKRTVAAPSVFIFPPSDEQLKSGTASVVCLLNNFYPREAKVQWKVDNALQSGNSQESVTEQDSKDSTYSLSSTLTLSKADYEKHKVYACEVTHQGLSSPVTKSFNRGEC heavy: not shown |  |  | 
11 | 0.66 | 2.64 min | 0.663 | 8.39 nM | 8.39 nM | TCE-26 (anti-CD3 scFv L232A, anti-TROP2 wt) (bispecific antibody) light: DIQLTQSPSSLSASVGDRVSITCKASQDVSIAVAWYQQKPGKAPKLLIYSASYRYTGVPDRFSGSGSGTDFTLTISSLQPEDFAVYYCQQHYITPLTFGAGTKVEIKRTVAAPSVFIFPPSDEQLKSGTASVVCLLNNFYPREAKVQWKVDNALQSGNSQESVTEQDSKDSTYSLSSTLTLSKADYEKHKVYACEVTHQGLSSPVTKSFNRGEC heavy: not shown |  |  | 
12 | 0.67 | 1.66 min | 0.674 | 11.1 nM | 11.1 nM | TCE-28 (anti-CD3 scFv Y234A, anti-TROP2 wt) (bispecific antibody) light: DIQLTQSPSSLSASVGDRVSITCKASQDVSIAVAWYQQKPGKAPKLLIYSASYRYTGVPDRFSGSGSGTDFTLTISSLQPEDFAVYYCQQHYITPLTFGAGTKVEIKRTVAAPSVFIFPPSDEQLKSGTASVVCLLNNFYPREAKVQWKVDNALQSGNSQESVTEQDSKDSTYSLSSTLTLSKADYEKHKVYACEVTHQGLSSPVTKSFNRGEC heavy: not shown |  |  | 
13 |  |  |  |  |  | TCE-6 (TROP2 Fab HC R98A TCE, scFv on the Fab HC) (bispecific antibody) light: DIQLTQSPSSLSASVGDRVSITCKASQDVSIAVAWYQQKPGKAPKLLIYSASYRYTGVPDRFSGSGSGTDFTLTISSLQPEDFAVYYCQQHYITPLTFGAGTKVEIKRTVAAPSVFIFPPSDEQLKSGTASVVCLLNNFYPREAKVQWKVDNALQSGNSQESVTEQDSKDSTYSLSSTLTLSKADYEKHKVYACEVTHQGLSSPVTKSFNRGEC heavy: not shown | 0.143 nM | 0.0772 nM | 0.0063 nM
14 | 0.68 | 3.64 min | 0.682 | 3.41 nM | 3.41 nM | TCE-29 (anti-CD3 scFv S235A, anti-TROP2 wt) (bispecific antibody) light: DIQLTQSPSSLSASVGDRVSITCKASQDVSIAVAWYQQKPGKAPKLLIYSASYRYTGVPDRFSGSGSGTDFTLTISSLQPEDFAVYYCQQHYITPLTFGAGTKVEIKRTVAAPSVFIFPPSDEQLKSGTASVVCLLNNFYPREAKVQWKVDNALQSGNSQESVTEQDSKDSTYSLSSTLTLSKADYEKHKVYACEVTHQGLSSPVTKSFNRGEC heavy: not shown |  |  | 
